Test results from the nanobody polyreactivity screen of Harvey et al. (2022).

Assay: yeast display, Sf9 membrane polyspecificity reagent, FACS + sequencing; frameworks hold sequencing errors
In short: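 Synthetic nanobody libraries on Saccharomyces cerevisiae BJ5465 were galactose-induced for 36–48 hours, stained 1 hour at 4 °C with 10% biotinylated, detergent-solubilized Sf9 membrane reagent and enriched on streptavidin microbeads. FACS then separated cells into low and high (top ~1%) gates by anti-HA (expression) and streptavidin (reagent binding) fluorescence. Genes were colony-PCR amplified, MiSeq 2 × 250 sequenced and CDR-length filtered. A clone's polyreactivity label is that of its gate of origin.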

Row | Sequence | polyreactivity (PSR sort gate)
1 | QVQLVESGGGLVHAGGSLRLSCAASGSIFDFNAMGWYRQVPGKERELVAAITSGGSTNYADSVKGRFTISRDNAKNTVYLQMNSLKPEDTAVYYCAARPARGASQGGYVRPWWYDSWGQGTQVTVSS | low polyreactivity
2 | QLQLVESGGGLVQAGGSLRLTCAASGSIFNDNAMGWYRPAPVKERELVAPINSDGSTYYADSVKGRFTISRDNAKNTVYLQMNSLKPEDTAVYYCNADTLLDNFTWDADGYDYWGQGTHVTVSS | low polyreactivity
3 | QVQLHESGGGLVQAGGSLRLSCAASGTISYAGPMGWYRQAPGKEREVVAGIGVGSNTIYADSVKGRYTIIRDNAKKTVYLQMKSLKPEDTEVYYCAVGGYAPLGRPYWGQGTQVTVSS | low polyreactivity
4 | QVQLVESGGGLVQAGGSLRLSCAASGFIFLIYAIGWYRQAPGTERELVATIRYSGGRTYYADSVKGRFTISRDNAKNTVYLQMNSLKPEDTAVYYCAARSVWFSGQGRMNYWGQGTQVTGSS | high polyreactivity
5 | QVQLVESGGCLVQAGGSLRLSCAPSGSTFIPNPMGWYRQEPGKERELVAAISRRGGSTNYADSVKGRFTISRDNAKNTVFLQMNSVKPEDTAVYYCAAVSPRRYRYDYWGQGPQVTVSS | low polyreactivity
6 | QVQLVESGGGLVQARGSLRLSCAASGIIFKGYAMGWYRQAPGKERELVAGITRYGGGTYYADSVKGRFTISRDNAMNTVYLQMNRLKPEDTAVYYCAAVRIARAVQDYDYWGQGTQVTVSS | high polyreactivity
7 | QVQLVESGGGLVQAGGSLRLSCADSGRIFGPYAMGWYRQAPGKERELVAAISGGGRTDYADSVKGRFTISRDNAKNTVYLQMNSLKPEDTAVYYCNADYTYWNGWFATRDYWGQGTQVTVSS | low polyreactivity
8 | QVQLVESGGGLVQAGGSLRLSCASSGSTFSYYAMGWYRQATGKERELVAGITTNGGRTFYADSVKGRFTISRDNAKNTVYLQMNSLKPEDTAVYYCNARHGRHRRTRSYYWGQGTQVTVSS | high polyreactivity
9 | QVQLVESGGGLVQAGGSLRLSCAASGRTFGRYTMGLYRQAPGKERELVAAITYSGGSTYYADSVKGRFTISRDNAKNTVYFQMNSLKPVDTAVYYCADEWGYDWYRYGYWGQGTQVTVSS | low polyreactivity
10 | QVQLVESGGGLVQAGGSLRLSCAASGRIFYGYSMGWSRQATGKEWELVAAISSSGGSTYYADSVKGRFTISRDNAKNTVSLQRNSVKPEDTAVYYCNAQRYRPGYWYDYWGQGTQVTVSS | high polyreactivity
11 | QVQLVESGGGLVQAGGSLRLICAASGPTFTKANAMVWYRQAPGKERELVAAITDGGSTYADSVKGRFTNSRDNSKNTVYLQMNCLKPEDTAVYYCAKENEVFYDASYDYWGQGTQVTVSS | low polyreactivity
12 | QVQLVESGGGLVQAGGSLRLSCAASGITFSRYAMGWYRQAPGKERELVATITFSGTSTFYADSVKGRFTISRDNAKNTVYLQMNSLKPEDTAVYYCARLRFGSWSTYYYWGQGTQVTVSS | low polyreactivity
13 | QVQLVESGGGLVQAGGSLRLSRAATGSIIASYAMGWYRQAPGKERELVSAISARGGSTYYADSVKGRFTISRDNAKNTVYLQMNSLKPEDTAVYSCAARHQQGRRISDYGYWGQGTQVTVSS | high polyreactivity
14 | QVQLVESGGGLVKAGGSLRITCAASGRIFGYYPMGWYRPATGKESELVAAITRRGGITYYADSVKGRFTISRDNAKNTVYLPMNCLKPADTAVYYRAADRYWGYDYWGQGTQVTGSS | high polyreactivity
15 | QVQVVESGGGLVQAGGSLRLSCAASGFIFPYYAMGWYRQAPGKEWELVAAISWSGSNTYYADSVKGRFTISRDNAKNTDYLQMNSLKPEATAVYYCAARYSVYYFVQRNGRYDDWGQGTQVTVSS | high polyreactivity
16 | QVQLVESGGGLVQAGGSHRLSCAASGRTFSYNAMGWYRQAPGKERELVASITSSGGGTSYADSVKGRFTISRDNAKNTVYLQMNSLKPEDTAVYYCNRVLPHPDGYGVGARGYWGQGTQVTVSS | high polyreactivity
17 | QVQLVESGGGLVQAGGSLRLSCAASGSTFSRYAMGLYRQATGKDRELVAAISWRGGRTYYADSVKGRFTISRDNAKNTVYLQMNSLKPEDTAVDYCAGLGDDATSYGYWGHGTQVTVSS | high polyreactivity
18 | QVQLVESRGGLVQAGGSLRLTCAASGFTFGFYGMGWYRPAPGKERELVARITWRSGSTYYADSVKGRFTISRDNAKNSVYLKLNSLKPEDTAVYSCAADGFSYYVIRFDYWGQGTQVTVSS | low polyreactivity
19 | QVQLVESGVGLVQAGGSLRLSCAASGFIFYPNAMGWYRQAPGKEREWVAVITGGGSTRYADSVKGRFTISRDNAKNTVYLQMNSLKPEDTAVYYCAVGTVYLTYRGYEYWGQGTQVTVSS | high polyreactivity
20 | QVQLVESGGGLVQAGGSLRLSCAASGFTFVSYAMGWSRQAPGKERELVATITSDGSTNYADSVKGRFTISRDNAKNTVYLQMNSLKPEDTAVYYCAADIHYYPGYLAYDYWGQGTQVTVSS | low polyreactivity
21 | QVQLVESGGGLVQAGGSLRLSCAASGRIFKQYAMGWYRQAPGKERELVAAISVRGGITYYADSVKGRFTISRDNAKNTVYLQMNSLKPEDTAVYYCAKRSYRTHTYDYWGQGTQVTVSS | low polyreactivity
